Molecular target: HSV-1 cytoplasmic capsids (HSV-1, KOS strain) (UniProt P10202)
Assay: co-sedimentation

UniProt P10202, sequence (P10202 whole entry, looked up): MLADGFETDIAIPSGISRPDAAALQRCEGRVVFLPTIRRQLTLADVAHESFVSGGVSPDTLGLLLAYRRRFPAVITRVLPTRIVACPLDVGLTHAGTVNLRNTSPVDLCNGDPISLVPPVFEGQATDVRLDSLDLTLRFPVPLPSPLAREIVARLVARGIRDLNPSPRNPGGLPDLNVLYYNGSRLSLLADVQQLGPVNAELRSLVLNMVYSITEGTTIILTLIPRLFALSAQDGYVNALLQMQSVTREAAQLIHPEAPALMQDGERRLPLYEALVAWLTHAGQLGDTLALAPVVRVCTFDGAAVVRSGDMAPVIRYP

B1: UL16 tegument protein of herpes simplex virus (natural protein)
chain: MAQLGPRRPLAPPGPPGTLPRPDSRAGARGTRDRVDDLGTDVDSIARIVNSVFVWRVVRADERLKIFRCLTVLTEPLCQVALPNPDPGRALFCEIFLYLTRPKALRLPPNTFFALFFFNRERRYCAIVHLRSVTHPLTPLLCTLTFARIRAATPPEETPDPTTEQLAEEPVVGELDGAYLVPAKTPPEPGACCALGPGAWWHLPSGQIYCWAMDSDLGSLCPPGSRARHLGWLLARITNHPGGCESCAPPPHIDSANALWLSSVVTESCPCVAPCLWAKMAQCTLAVQGDASLCPLLFGHPVDTVTLLQAPRRPCITDRLQEVVGGRCGADNIPPTSAGWRLCVFSSYISRLFATSCPTVARAVARASSSDPE
- amount of UL16 on ΔUL37 capsids relative to WT: 42%

Source: paper PMC2824050
